What was measured:
[1] = target: adenylate kinase 2 (AK2), recombinant human (human, UniProt P54819 1-239); assay: SEC
SEC = target: the molecule itself; assay: SEC

B1: AIFM1 ΔR201 (disease-related variant) (domain or fragment)
chain: LGLTPEQKQKKAALSASEGEEVPQDKAPSHVPFLLIGGGTAAFAAARSIRARDPGARVLIVSEDPELPYMRPPLSKELWFSDDPNVTKTLRFKQWNGKESIYFQPPSFYVSAQDLPHIENGGVAVLTGKKVVQLDVRDNMVKLNDGSQITYEKCLIATGGTPRSLSAIDRAGAEVKSRTTLFRKIGDFRSLEKISREVKSITIIGGGFLGSELACALGRKARALGTEVIQLFPEKGNMGKILPEYLSNWTMEKVRREGVKVMPNAIVQSVGVSSGKLLIKLKDGRKVETDHIVAAVGLEPNVELAKTGGLEIDSDFGGFRVNAELQARSNIWVAGDAACFYDIKLGRRRVEHHDHAVVSGRLAGENMTGAAKPYWHQSMFWSDLGPDVGYEAIGLVDSSLPTVGVFAKATAQDNPKSATEQSGTGIRSESETESEASEITIPPSTPAVPQAPVQGEDYGKGVIFYLRDKVVVGIVLWNIFNRMPIARKIIKDGEQHEDLNEVAKLFNIHED
[1]
  binding result: binds
SEC
  stoichiometry N: 2
